Assay results: patent US20250163162A1 (SYNTHEKINE, published 2025)

Legend:
[1] = target: T1, cIL2Rg-Fc (lot#P210115SV5) (cynomolgus, UniProt A0A2K5VGJ6 23-262); assay: SPR (Biacore T200), Fc-fused ligand captured on chip, dual VHH as analyte, 1:1 Langmuir fit
T1 construct: Named only by lot number; also called cynomolgus IL2Rg-Fc; not shown: Fc of the fusion protein
T1 sequence: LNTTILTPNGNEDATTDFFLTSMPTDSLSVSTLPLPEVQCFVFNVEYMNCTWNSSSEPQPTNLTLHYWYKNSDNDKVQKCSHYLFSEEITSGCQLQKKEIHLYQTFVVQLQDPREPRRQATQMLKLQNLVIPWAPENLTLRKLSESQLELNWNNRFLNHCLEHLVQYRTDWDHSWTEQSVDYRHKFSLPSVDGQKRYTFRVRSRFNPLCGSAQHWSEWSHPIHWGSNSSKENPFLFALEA
Experimental: (§1) All experiments were conducted in 10 mM Hepes, 150 mM NaCl, 0.05% (v/v) Polysorbate 20 (PS20) and 3 mM EDTA (HBS-EP+ buffer) on a Biacore T200 instrument equipped with Protein A or CAP biotin chips (Cytiva). For experiments on Protein A chips, Fc-fused ligands were flowed at 5 μl/min for variable time ranging from 18 to 300 seconds, reaching the capture loads listed in the tables below. Following ligand capture, injections of a 2-fold dilution series of analyte typically comprising at least five concentrations between 1 μM and 1 nM were performed in either high performance or single cycle kinetics mode. Surface regeneration was achieved by flowing 10 mM glycine-HCl, pH 1.5 (60 seconds, […]). Buffer-subtracted sensograms were processed with Biacore T200 Evaluation Software and globally fit with a 1:1 Langmuir binding model (bulk shift set to zero) to extract kinetics and affinity constants (kₐ, kd, KD). RMAX<100 RU indicates surface density compatible with kinetics analysis. Experiments on CAP chips were performed as described above with an additional capture step of Biotin CAPture reagent (10 seconds, 40 uL/min) performed prior to capture of biotinylated ligands. Calculated Rmax were generated using the equation Rmax=Load (RU) x valency of ligand x (Molecular weight of analyte/Molecular weight of ligand. Surface activity was defined as the ratio experimental/calculated Rmax. The results of these experiments are provided in below for sample information and experimental results.

[2] = target: T2, hIL2Rg-Fc (SinoBiological cat#10555) (human, UniProt P31785 23-254, limits assumed); assay: as above
T2 construct: Bought Fc fusion (SinoBiological cat#10555); P31785 is printed for hCD132 in the background; also called human IL2Rg-Fc; not shown: Fc of the bought fusion protein
T2 sequence (looked up): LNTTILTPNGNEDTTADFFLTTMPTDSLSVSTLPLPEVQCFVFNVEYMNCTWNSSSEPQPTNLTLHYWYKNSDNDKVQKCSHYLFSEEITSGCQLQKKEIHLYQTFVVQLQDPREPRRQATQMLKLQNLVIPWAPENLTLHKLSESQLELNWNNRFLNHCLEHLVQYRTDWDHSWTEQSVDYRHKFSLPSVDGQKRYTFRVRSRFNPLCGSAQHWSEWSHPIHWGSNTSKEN
Experimental: as §1

[3] = target: T1, cIL2Rg-Fc (lot#P210115SV5); assay: SPR (Biacore T200); ratio experimental/calculated Rmax
[4] = target: T2, hIL2Rg-Fc (SinoBiological cat#10555); assay: as above

| Binder | Kd [1] [nM] | koff [1] [s⁻¹] | kon [1] [M⁻¹ s⁻¹] | Kd [2] [nM] | koff [2] [s⁻¹] | kon [2] [M⁻¹ s⁻¹] | Surface Activity [3] [%] | Surface Activity [4] [%] |
| --- | --- | --- | --- | --- | --- | --- | --- | --- |
| DR471(DR241-DR231) (bispecific antibody, Anti-hIL10Ra/hIL2Rg dual VHH with ASH6 handle; also called G3) QVQLQESGGGSVQAGGSLRLSCAASGYSNCSYDMTWYRQAPGKEREFVSAIHSDGSTRYADSVKGRFFISQDNAKNTVYLQMNSLKPEDTAMYYCKTDPLHCRAHGGSWYSVRANYWGQGTQVTVSSGGGSQVQLQESGGGSVQAGGSLRLSCTASGFTFDDREMNWYRQAPGNECELVSTISSDGSTYYADSVKGRFTISQDNAKNTVYLQMDSVKPEDTAVYYCAADFMIAIQAPGAGCWGQGTQVTVSSASHHHHHH | 13.4 | 0.0048 | 360000 | 16.6 | 0.0057 | 340000 | 1 | 5 |
| DR442(DR236-DR232) (bispecific antibody, Anti-hIL10Ra/hIL2Rg dual VHH with ASH6 handle; also called F7) QVQLQESGGGSVQAGGSLRLSCAASRFTYSSYCMGWFRQAPGKEREGVASIDSDGSTSYTDSVKGRFTISKDNAKNTLYLQMNSLKPEDTAMYYCALDLMSTVVPGFCGFLLSAGMDYWGKGTQVTVSSGGGSQVQLQESGGGSVQAGGSLRLSCVASGYTSCMGWFRQAPGKEREAVATIYTRGRSIYYADSVKGRFTISQDNAKNTLYLQMNSLKPEDIAMYSCAAGGYSWSAGCEFNYWGQGTQVTVSSASHHHHHH | 41.3 | 0.0033 | 79000 | 21.5 | 0.042 | 2e+06 | 7 | 5 |
